From PMC3229523, “Identification of Lactoferricin B Intracellular Targets Using an Escherichia coli Proteome Chip” (PLoS ONE, 2011)
Ends that are not written are not given here. * marks the point of attachment. Biotin = O=C1N[C@H]2[C@H](CS[C@H]2CCCCC(=O)*)N1

Tests used:
Assay in all cases: peptide or protein array; E. coli proteome chip: purified His-tagged proteins printed in duplicate on Fullmoon slides, blocked with 1% BSA; 10 nM N-terminal biotinylated LfcinB with 1% BSA, room temperature, 1 h; detected with DyLight 649-labeled streptavidin, ratio to DyLight 549-labeled anti-His antibody; ProCAT normalisation, local cut-off; triplicate chips
Details in all cases: both partners purified
RplE = RplE (E. coli K-12, UniProt P62399 1-179)
Adi = target: T1, Adi (E. coli K-12, UniProt P28629 1-755)
T1 construct: Adi, E. coli K-12
T1 sequence (looked up): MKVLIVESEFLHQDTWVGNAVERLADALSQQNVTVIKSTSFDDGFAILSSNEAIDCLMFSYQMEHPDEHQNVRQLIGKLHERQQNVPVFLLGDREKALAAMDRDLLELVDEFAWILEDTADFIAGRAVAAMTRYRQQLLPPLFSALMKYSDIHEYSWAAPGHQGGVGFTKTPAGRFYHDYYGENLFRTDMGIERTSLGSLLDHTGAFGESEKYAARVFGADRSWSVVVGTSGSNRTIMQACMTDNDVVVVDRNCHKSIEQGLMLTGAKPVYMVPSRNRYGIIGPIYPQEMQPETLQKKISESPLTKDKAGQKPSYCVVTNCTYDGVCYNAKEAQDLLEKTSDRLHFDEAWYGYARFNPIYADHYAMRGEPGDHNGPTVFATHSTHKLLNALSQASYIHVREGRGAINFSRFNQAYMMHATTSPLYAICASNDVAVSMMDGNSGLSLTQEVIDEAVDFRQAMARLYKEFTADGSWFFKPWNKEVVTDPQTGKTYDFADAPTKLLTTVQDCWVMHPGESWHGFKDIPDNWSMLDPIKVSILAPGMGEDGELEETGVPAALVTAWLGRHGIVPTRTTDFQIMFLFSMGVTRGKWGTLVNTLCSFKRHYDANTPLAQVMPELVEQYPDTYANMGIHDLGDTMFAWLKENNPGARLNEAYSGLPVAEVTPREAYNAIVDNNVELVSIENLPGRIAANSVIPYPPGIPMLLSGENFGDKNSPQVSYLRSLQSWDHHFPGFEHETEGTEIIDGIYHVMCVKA

YjgL = target: T2, YjgL (E. coli K-12, UniProt P39336 1-604)
T2 construct: YjgL, E. coli K-12
T2 sequence (looked up): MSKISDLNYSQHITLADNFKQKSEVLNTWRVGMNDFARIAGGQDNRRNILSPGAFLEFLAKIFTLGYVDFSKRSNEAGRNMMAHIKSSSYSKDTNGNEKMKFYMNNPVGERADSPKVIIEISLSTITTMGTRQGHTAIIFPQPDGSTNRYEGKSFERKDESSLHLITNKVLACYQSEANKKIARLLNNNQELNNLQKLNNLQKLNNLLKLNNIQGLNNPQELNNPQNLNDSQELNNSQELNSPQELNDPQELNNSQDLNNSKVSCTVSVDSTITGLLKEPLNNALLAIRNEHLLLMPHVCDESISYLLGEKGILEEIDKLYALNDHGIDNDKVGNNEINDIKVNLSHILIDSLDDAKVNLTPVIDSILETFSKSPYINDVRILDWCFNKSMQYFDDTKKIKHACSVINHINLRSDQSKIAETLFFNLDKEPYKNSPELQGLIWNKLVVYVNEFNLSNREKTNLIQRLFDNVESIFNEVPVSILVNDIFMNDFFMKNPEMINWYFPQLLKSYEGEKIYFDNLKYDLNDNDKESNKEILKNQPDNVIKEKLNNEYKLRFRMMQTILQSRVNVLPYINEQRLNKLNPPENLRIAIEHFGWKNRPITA

YegJ = target: T3, YegJ (E. coli K-12, UniProt P76394 1-153)
T3 construct: YegJ, E. coli K-12
T3 sequence (looked up): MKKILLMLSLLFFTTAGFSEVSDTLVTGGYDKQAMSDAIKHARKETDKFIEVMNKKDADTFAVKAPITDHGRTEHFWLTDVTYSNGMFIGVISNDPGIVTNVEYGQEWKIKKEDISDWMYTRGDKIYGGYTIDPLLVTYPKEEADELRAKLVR

SfmH = target: T4, SfmH (E. coli K-12, UniProt P75715 25-327)
T4 construct: SfmH, E. coli K-12
T4 sequence (looked up): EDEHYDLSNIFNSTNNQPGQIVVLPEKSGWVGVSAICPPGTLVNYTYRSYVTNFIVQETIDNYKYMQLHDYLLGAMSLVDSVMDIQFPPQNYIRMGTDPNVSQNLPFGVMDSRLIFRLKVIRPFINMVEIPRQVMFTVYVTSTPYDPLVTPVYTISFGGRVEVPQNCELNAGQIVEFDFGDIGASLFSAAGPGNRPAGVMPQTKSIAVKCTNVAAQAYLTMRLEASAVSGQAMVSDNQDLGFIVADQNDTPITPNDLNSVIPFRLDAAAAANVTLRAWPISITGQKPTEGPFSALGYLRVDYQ

Measured: binding result

B1: N-terminal biotinylated Lactoferricin B (peptide, UniProt P24627 36-60, looked up)
peptide: Biotin-FKCRRWQWRMKKLGAPSITCVRRAF
modifications: ends and bridges not checked
notes: lactoferricin B (LfcinB), cationic antimicrobial peptide of 25 amino acids; also called biotinylated LfcinB; biotin-labeled LfcinB; source: bought: Kelowna Inc
binds: all assays above
